# Fewer inactive variants are shown than the library holds.
# Assays:
# [1] = tested on: biotinyl-Phe-oxazolone; assay: self-aminoacylation, catalytic enhancement (BFO) (fold over background); higher = more active; k-Seq, kA / k0A0; sequences stand for … in GGGAAUGGAUCCACAUCUACGAAUUC…UUCACUGCAGACUUGACGAAGCUG
# Summary of the method: (§1)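 Mutagenized RNA pools (0.43 μM; 21-nt variable region) were treated with 2–1250 μM of each biotinyl-aminoacyl-oxazolone. Conditions were 50 μL HEPES/NaCl/KCl/MgCl2/CaCl2 buffer, 5% acetonitrile, pH 6.9–7.0, room temperature, 90 minutes. Catalytic enhancement, the median kA relative to the uncatalyzed rate, was derived from streptavidin capture, qPCR and Illumina sequencing.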
# [2] = tested on: biotinyl-Ile-oxazolone; assay: self-aminoacylation, catalytic enhancement (BIO) (fold over background); higher = more active; k-Seq, kA / k0A0; sequences stand for … in GGGAAUGGAUCCACAUCUACGAAUUC…UUCACUGCAGACUUGACGAAGCUG
# Summary of the method: as §1
# [3] = tested on: biotinyl-Met-oxazolone; assay: self-aminoacylation, catalytic enhancement (BMO) (fold over background); higher = more active; k-Seq, kA / k0A0; sequences stand for … in GGGAAUGGAUCCACAUCUACGAAUUC…UUCACUGCAGACUUGACGAAGCUG
# Summary of the method: as §1
# [4] = tested on: biotinyl-Val-oxazolone; assay: self-aminoacylation, catalytic enhancement (BVO) (fold over background); higher = more active; k-Seq, kA / k0A0; sequences stand for … in GGGAAUGGAUCCACAUCUACGAAUUC…UUCACUGCAGACUUGACGAAGCUG
# Summary of the method: as §1
# [5] = tested on: biotinyl-Leu-oxazolone; assay: self-aminoacylation, catalytic enhancement (BLO) (fold over background); higher = more active; k-Seq, kA / k0A0; sequences stand for … in GGGAAUGGAUCCACAUCUACGAAUUC…UUCACUGCAGACUUGACGAAGCUG
# Summary of the method: as §1
# [6] = tested on: biotinyl-Trp-oxazolone; assay: self-aminoacylation, catalytic enhancement (BWO) (fold over background); higher = more active; k-Seq, kA / k0A0; sequences stand for … in GGGAAUGGAUCCACAUCUACGAAUUC…UUCACUGCAGACUUGACGAAGCUG
# Summary of the method: as §1
Sequence,self-aminoacylation [1],self-aminoacylation [2],self-aminoacylation [3],self-aminoacylation [4],self-aminoacylation [5],self-aminoacylation [6]
AAGUUGGUUAAUAGUCGCAAG [Fam3.1 aminoacylation ribozyme variant],1.87,1.4,1.42,1.24,1.46,1.81
AAGUUUACUAACAGUCGCAAG [Fam3.1 aminoacylation ribozyme variant],2.91,1.58,1.48,1.63,1.95,1.38
AAGUUUACUAAUAGACGCAAG [Fam3.1 aminoacylation ribozyme variant],1.15,0.695,0.816,1.03,0.638,0.834
AAGUUUACUAUUAGUCGCAAG [Fam3.1 aminoacylation ribozyme variant],2.72,1.83,1.59,1.76,1.49,2.02
AAGUUUCCUAAGAGUCGCAAG [Fam3.1 aminoacylation ribozyme variant],1.17,1.29,1.04,1.31,1.24,0.936
AAGUUUCCUAAUAGACGCAAG [Fam3.1 aminoacylation ribozyme variant],1.32,0.82,0.632,0.805,0.671,0.895
AAGUUUCCUAAUAGUCGCAAC [Fam3.1 aminoacylation ribozyme variant],2.42,1.59,1.73,1.31,1.5,2.18
AAGUUUCCUAAUAGUCGCUAG [Fam3.1 aminoacylation ribozyme variant],2.18,1.61,1.78,1.67,1.39,1.97
AAGUUUCCUAAUAGUCGUAAG [Fam3.1 aminoacylation ribozyme variant],2.58,1.2,1.18,1.07,1.07,1.27
AAGUUUCGUAAUAGUCGCAAG [Fam3.1 aminoacylation ribozyme variant],2.26,1.63,1.27,1.33,1.78,1.61
AAGUUUGAUAACAGUCGCAAG [Fam3.1 aminoacylation ribozyme variant],0.983,0.929,0.877,0.798,0.548,0.569
AAGUUUGAUAAUAGCCGCAAG [Fam3.1 aminoacylation ribozyme variant],1.32,1.29,1.37,1.14,1.05,1.19
AAGUUUGAUAAUAGUAGCAAG [Fam3.1 aminoacylation ribozyme variant],0.835,0.724,0.756,0.691,0.535,0.667
AAGUUUGAUAAUGGUCGCAAG [Fam3.1 aminoacylation ribozyme variant],1.47,0.891,0.785,0.644,0.895,0.581
AAGUUUGAUAUUAGUCGCAAG [Fam3.1 aminoacylation ribozyme variant],1.72,1.45,1.24,1.4,1.54,1.31
AAGUUUGCAAAAAGUCGCAAG [Fam3.1 aminoacylation ribozyme variant],1.72,0.902,1.07,0.733,0.938,0.831
AAGUUUGCAAAUACUCGCAAG [Fam3.1 aminoacylation ribozyme variant],2.14,0.898,0.701,0.798,0.897,0.774
AAGUUUGCAAAUCGUCGCAAG [Fam3.1 aminoacylation ribozyme variant],0.933,1.09,0.985,0.93,1.18,1.21
AAGUUUGCAAGUAGUCGCAAG [Fam3.1 aminoacylation ribozyme variant],1.14,0.95,1.06,0.914,0.731,1.06
AAGUUUGCAUAUAGUCGCAAG [Fam3.1 aminoacylation ribozyme variant],0.843,0.762,0.636,0.961,0.744,0.826
AAGUUUGCCAAUAGUCACAAG [Fam3.1 aminoacylation ribozyme variant],1.1,1.55,1.56,1.23,1.07,1.04
AAGUUUGCCAAUAGUCCCAAG [Fam3.1 aminoacylation ribozyme variant],0.931,1.21,1.1,1.04,0.831,1.27
AAGUUUGCGAAAAGUCGCAAG [Fam3.1 aminoacylation ribozyme variant],2.82,1.46,1.8,1.43,1.8,1.3
AAGUUUGCGAAUAGUCACAAG [Fam3.1 aminoacylation ribozyme variant],1.66,1.17,0.933,0.962,0.774,0.863
AAGUUUGCGAAUAGUCGCAAC [Fam3.1 aminoacylation ribozyme variant],7.2,1.66,1.33,1.4,1.32,1.46
AAGUUUGCGAAUAGUCGCAGG [Fam3.1 aminoacylation ribozyme variant],4.04,1.7,1.79,1.59,1.89,2.44

Sequence,self-aminoacylation [1],self-aminoacylation [2],self-aminoacylation [3],self-aminoacylation [4],self-aminoacylation [5],self-aminoacylation [6]
AAGUUUGCUAAAAGUCGCUAG [Fam3.1 aminoacylation ribozyme variant],1.38,0.911,0.781,0.803,0.944,0.783
AAGUUUGCUAAAAGUCUCAAG [Fam3.1 aminoacylation ribozyme variant],4.24,1.11,1.24,0.996,0.875,1.45
AAGUUUGCUAAACGUCGCAAG [Fam3.1 aminoacylation ribozyme variant],0.887,0.739,0.608,0.542,0.537,0.603
AAGUUUGCUAACAAUCGCAAG [Fam3.1 aminoacylation ribozyme variant],1.03,0.619,0.63,0.599,0.591,0.717
AAGUUUGCUAACAGUCGCAAA [Fam3.1 aminoacylation ribozyme variant],2.28,1.43,1.06,0.995,1.23,1.58
AAGUUUGCUAACUGUCGCAAG [Fam3.1 aminoacylation ribozyme variant],0.773,0.784,1.01,0.79,1,0.984
AAGUUUGCUAAGAGACGCAAG [Fam3.1 aminoacylation ribozyme variant],1.28,0.661,0.544,0.76,0.967,0.74
AAGUUUGCUAAGAGUCGCAAG [Fam3.1 aminoacylation ribozyme variant],3.23,0.748,0.755,0.741,0.661,1.39
AAGUUUGCUAAGAGUCGGAAG [Fam3.1 aminoacylation ribozyme variant],1.35,0.879,0.956,0.923,0.64,1.4
AAGUUUGCUAAGAGUUGCAAG [Fam3.1 aminoacylation ribozyme variant],0.74,0.797,0.665,0.757,0.86,0.97
AAGUUUGCUAAGAUUCGCAAG [Fam3.1 aminoacylation ribozyme variant],1.13,0.986,0.647,0.867,0.86,1.04
AAGUUUGCUAAUAAUCGAAAG [Fam3.1 aminoacylation ribozyme variant],0.807,1.02,0.793,0.764,0.95,0.78
AAGUUUGCUAAUAAUCGCAUG [Fam3.1 aminoacylation ribozyme variant],1.21,0.866,1.05,0.926,0.932,1.15
AAGUUUGCUAAUAAUCGGAAG [Fam3.1 aminoacylation ribozyme variant],0.788,0.961,0.973,0.923,0.877,0.66
AAGUUUGCUAAUACACGCAAG [Fam3.1 aminoacylation ribozyme variant],1.19,0.665,0.7,0.627,0.564,0.66
AAGUUUGCUAAUACUCGCUAG [Fam3.1 aminoacylation ribozyme variant],0.624,0.63,0.532,0.507,0.594,0.445
AAGUUUGCUAAUACUGGCAAG [Fam3.1 aminoacylation ribozyme variant],0.739,0.642,0.481,0.571,0.696,0.458
AAGUUUGCUAAUAGACGCGAG [Fam3.1 aminoacylation ribozyme variant],0.443,0.793,0.912,0.64,0.619,0.812
AAGUUUGCUAAUAGACGGAAG [Fam3.1 aminoacylation ribozyme variant],0.91,0.637,0.544,0.584,0.406,0.764
AAGUUUGCUAAUAGCCGCGAG [Fam3.1 aminoacylation ribozyme variant],1.6,1.05,0.916,1.63,2.04,1.01
AAGUUUGCUAAUAGCCGUAAG [Fam3.1 aminoacylation ribozyme variant],18.2,1.3,1.39,1.36,0.898,7.16
AAGUUUGCUAAUAGGCCCAAG [Fam3.1 aminoacylation ribozyme variant],0.737,1.32,0.899,1.23,0.847,1.2
AAGUUUGCUAAUAGGCGCUAG [Fam3.1 aminoacylation ribozyme variant],0.86,0.648,0.723,0.722,0.647,0.561
AAGUUUGCUAAUAGGGGCAAG [Fam3.1 aminoacylation ribozyme variant],1.08,0.686,0.663,0.649,0.505,0.665
AAGUUUGCUAAUAGGUGCAAG [Fam3.1 aminoacylation ribozyme variant],0.732,0.728,0.706,0.836,0.609,0.526
